From patent publication US20210101970A1 (Pfizer, published 2021) come the findings set out here.

The target in one test is T1, XC280 (human, UniProt P32302 2-372).
T1 construct: also called hCXCR5 W19K
T1 sequence: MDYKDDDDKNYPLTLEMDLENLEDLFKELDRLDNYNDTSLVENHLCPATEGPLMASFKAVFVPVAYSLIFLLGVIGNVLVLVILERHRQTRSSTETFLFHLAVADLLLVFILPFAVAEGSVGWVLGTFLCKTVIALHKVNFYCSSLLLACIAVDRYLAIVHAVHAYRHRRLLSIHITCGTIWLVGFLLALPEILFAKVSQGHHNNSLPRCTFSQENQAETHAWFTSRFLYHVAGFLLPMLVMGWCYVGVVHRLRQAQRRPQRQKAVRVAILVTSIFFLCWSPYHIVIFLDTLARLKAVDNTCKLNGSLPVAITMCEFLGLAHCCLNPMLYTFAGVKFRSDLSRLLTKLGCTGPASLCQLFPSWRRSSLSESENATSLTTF
The experiment in a line: flow cytometry on HEK-293T cells transiently expressing the FLAG-tagged mutein; ratio of gMFI of the antibody to gMFI of anti-FLAG PE. The protocol: The cells were analyzed by flow cytometry using an Accuri (BD Biosciences Franklin Lakes, N.J.). The geometric mean fluorescence intensity (gMFI) was determined and the ratio for the gMFI of each CXCR5 antibody and anti-flag was calculated.

Test [1] has as its target T2, human CXCR5 (human, UniProt P32302 1-372).
T2 sequence: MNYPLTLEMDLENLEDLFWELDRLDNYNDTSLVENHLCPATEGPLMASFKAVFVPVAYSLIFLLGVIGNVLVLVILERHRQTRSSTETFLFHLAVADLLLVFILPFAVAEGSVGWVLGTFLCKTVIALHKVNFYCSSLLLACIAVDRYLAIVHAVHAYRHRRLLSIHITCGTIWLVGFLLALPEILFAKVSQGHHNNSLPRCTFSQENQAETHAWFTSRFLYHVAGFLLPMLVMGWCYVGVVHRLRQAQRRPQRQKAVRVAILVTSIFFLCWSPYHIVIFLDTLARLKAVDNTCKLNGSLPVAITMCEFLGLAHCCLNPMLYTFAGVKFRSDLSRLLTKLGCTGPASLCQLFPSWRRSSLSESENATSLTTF
The experiment in a line: cell-based or functional assay.

The target of test [2] is T3, mouse CXCR5 (mouse, UniProt Q04683 1-374).
T3 construct: also called mCXCR5
T3 sequence: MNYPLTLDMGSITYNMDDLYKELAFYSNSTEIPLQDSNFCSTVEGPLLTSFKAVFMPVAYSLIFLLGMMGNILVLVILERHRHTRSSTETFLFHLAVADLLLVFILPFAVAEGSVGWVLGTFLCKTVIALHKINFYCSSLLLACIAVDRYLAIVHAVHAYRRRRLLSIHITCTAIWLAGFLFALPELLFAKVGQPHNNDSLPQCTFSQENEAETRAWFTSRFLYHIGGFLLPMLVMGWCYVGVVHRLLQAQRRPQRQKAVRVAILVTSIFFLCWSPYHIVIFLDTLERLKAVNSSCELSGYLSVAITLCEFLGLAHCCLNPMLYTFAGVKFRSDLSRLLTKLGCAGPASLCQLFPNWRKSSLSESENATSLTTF
Description: flow cytometry on cells expressing mouse CXCR5.

In test [3] the target is T2, human CXCR5. Description: cell-based or functional assay. This is another data set of the same source.
For test [4], the target named is T2, human CXCR5. The experiment in a line: cell-based or functional assay. This is another data set of the same source.
Another test deals with T4, XC252.
T4 construct: whole, on cells; also called hCXCR5-mL2
Description: FACS on cells expressing the CXCR5 construct. Note: test concentration or dose not given here.

The next test concerns the target T5, XC255.
T5 construct: whole, on cells; also called hCXCR5-mN-mL3
Description: FACS on cells expressing the CXCR5 construct. Note: test concentration or dose not given here.

For the next test, the target named is T6, XC256.
T6 construct: whole, on cells; also called hCXCR5-mN-mL2
The experiment in a line: FACS on cells expressing the CXCR5 construct. Note: test concentration or dose not given here.

In test [5] the target is T2, human CXCR5. The experiment in a line: FACS on cells expressing the CXCR5 construct. Note: test concentration or dose not given here.
In a further test the target is T7, XC251.
T7 construct: whole, on cells; also called hCXCR5-mL3
The experiment in a line: FACS on cells expressing the CXCR5 construct. Note: test concentration or dose not given here.

For another test, the target named is T8, XC253.
T8 construct: whole, on cells; also called hCXCR5-mN
Description: FACS on cells expressing the CXCR5 construct. Note: test concentration or dose not given here.

The next test concerns the target T9, XC254.
T9 construct: whole, on cells; also called hCXCR5-mL2-mL3
Description: FACS on cells expressing the CXCR5 construct.

The target in test [6] is T3, mouse CXCR5. The experiment in a line: FACS on cells expressing the CXCR5 construct.
Test [7] concerns the target T2, human CXCR5. The experiment in a line: flow cytometry on Raji cells, gMFI titration. The protocol: The apparent affinity of antibody binding to Raji cells was calculated as the EC₅₀ of equilibrium binding titration curves in which the geometric mean fluorescence intensity (gMFI) of the antigen binding population was quantified by flow cytometry and the results are shown in Table 2.

B1: 16D7 (reference antibody) (antibody, human IgG1, kappa, V domains shown)
VH: QVQLKESGPGLVAPSESLSITCTVSGFSLIDYGVNWIRQPPGKGLEWLGVIWGDGTTYYNPSLKSRLSISKDNSKSQVFLKVTSLTTDDTAMYYCARIVYWGQGTLVTVSA
VL: DIVMTQAAPSVAVTPGASVSISCRSSKSLLHSSGKTYLYWFLQRPGQSPQLLIYRLSSLASGVPDRFSGSGSGTAFTLRISRVEAEDVGVYYCMQHLEYPYTFGGGTKLEIKR
notes: fucosylated; also called S16D7
In the case of B1, the binding result with XC280 is on record as “no binding (tested: 1 or 3 µg/ml (not on the sheet))”; with mouse CXCR5 [2], “no binding”. For the same molecule, the “Ca2+ flux IC50” value with human CXCR5 [1] turned out to be 11.4 nM. Besides, in the test with human CXCR5 [3], the “% Inhibition CXCL13” value was determined as 102%. Moreover, in the test with human CXCR5 [3], the “EC50, stimulation of CXCL13-inhibited cAMP production” value was determined as 1.1 nM. In addition, the “ADCC Activity Average EC50, Human B Cells” value with human CXCR5 [4] is 2.59 nM. Also, the GMFI with XC252 was 27000 GMFI; with XC255, 1340 GMFI; with XC256, 1380 GMFI; in the test with human CXCR5 [5] it was 150000 GMFI; with XC251, 19900 GMFI; in the test with XC253, 1260 GMFI. Besides, the GMFI in the test with XC254 was 16900 GMFI; in the test with mouse CXCR5 [6] it was 958 GMFI. This molecule also gave an EC50 in the test with human CXCR5 [7] of 0.65 nM.
